“And” between values parts separate entries of the source, which are not always exact repeats. Equal entries are not always repeated.

The record followed here is FireProtDB (doi:10.1016/j.bpc.2005.09.016).

For this data set the following is noted: Aspergillus oryzae (strain ATCC 42149 / RIB 40), 25 °C, CD, Glycine hydrochloride 0.05 M, reversible: Yes, whole UniProt chain shown.

B1: Guanyl-specific ribonuclease T1 wild type, P00651 (protein)
chain: MMYSKLLTLTTLLLPTALALPSLVERACDYTCGSNCYSSSDVSTAQAAGYQLHEDGETVGSNSYPHKYNNYEGFDFSVSSPYYEWPILSSGDVYSGGSPGADRVVFNENNQLAGVITHTGASGNNFVECT
On to B1, for which, under “pH 3, Urea”, the denaturant m value was 1.57 kcal/mol/M and 1.73 kcal/mol/M and 2.04 kcal/mol/M; the “denaturant midpoint (higher = more stable)” value (“denaturant midpoint” below) is 3.8 M and 3.2 M and 3.1 M; the unfolding free energy is 6.01 kcal/mol and 5.54 kcal/mol and 6.36 kcal/mol. Also, where the note is “pH 5.5, GdnHCl”, the “denaturant midpoint” value is 4.3 M and 3.7 M; the unfolding free energy is 9.29 kcal/mol and 9.48 kcal/mol and 9.37 kcal/mol. Besides, for the setting “pH 6, GdnHCl”, the “denaturant midpoint” value is 3.8 M and 3.7 M; the unfolding free energy was 10.2 kcal/mol.
